From US9029097 come the findings set out here.

The test deals with β2AR-Rluc (human; Renilla reniformis) (UniProt P07550). Description: BRET2, living HEK293T cells, Iso, untagged Gβ1γ2 co-expressed. Background: In BRET a luciferase serves as donor, and the signal depends on an acceptor being close.

Turning to Gαs-GFP10, the agonist-promoted increase in BRET worked out at 68%.
